Data as given in PMC9482650, “Quantitative fragmentomics allow affinity mapping of interactomes” (Nature Communications, 2022).

T1: TIAM2, Q8IVF5
T1 sequence (Q8IVF5 885-986, limits assumed, looked up): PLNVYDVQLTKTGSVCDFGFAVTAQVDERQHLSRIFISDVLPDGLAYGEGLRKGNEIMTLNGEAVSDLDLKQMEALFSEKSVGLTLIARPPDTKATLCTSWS

T2: SHANK1, Q9Y566
T2 sequence (Q9Y566 658-767, limits assumed, looked up): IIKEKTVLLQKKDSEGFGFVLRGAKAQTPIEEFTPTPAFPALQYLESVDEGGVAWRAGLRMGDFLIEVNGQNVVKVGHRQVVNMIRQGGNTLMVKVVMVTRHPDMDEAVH

T3: MPP2, Q14168
T3 sequence (Q14168 180-250, limits assumed, looked up): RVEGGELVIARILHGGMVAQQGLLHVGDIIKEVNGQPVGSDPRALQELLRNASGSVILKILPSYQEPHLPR

T4: NHERF3_3, Q5T2W1
T4 sequence (Q5T2W1 238-333, limits assumed, looked up): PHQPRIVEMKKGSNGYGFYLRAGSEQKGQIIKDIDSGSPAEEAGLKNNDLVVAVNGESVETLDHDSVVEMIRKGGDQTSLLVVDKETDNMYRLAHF

T5: GRIP1_5, Q9Y3R0
T5 sequence (Q9Y3R0 568-668, limits assumed, looked up): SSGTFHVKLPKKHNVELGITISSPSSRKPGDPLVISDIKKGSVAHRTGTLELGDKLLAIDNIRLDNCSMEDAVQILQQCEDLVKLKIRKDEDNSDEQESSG

T6: NHERF3_1, Q5T2W1
T6 sequence (Q5T2W1 4-100, limits assumed, looked up): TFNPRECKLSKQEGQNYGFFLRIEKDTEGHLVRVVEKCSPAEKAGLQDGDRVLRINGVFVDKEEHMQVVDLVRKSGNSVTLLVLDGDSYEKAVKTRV

T7: TJP3_3, O95049
T7 sequence (O95049 375-456, limits assumed, looked up): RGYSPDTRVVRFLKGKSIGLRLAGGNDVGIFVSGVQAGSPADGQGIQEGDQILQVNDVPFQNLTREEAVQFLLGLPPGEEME

T8: LNX2_2, Q8N448
T8 sequence (Q8N448 334-432, limits assumed, looked up): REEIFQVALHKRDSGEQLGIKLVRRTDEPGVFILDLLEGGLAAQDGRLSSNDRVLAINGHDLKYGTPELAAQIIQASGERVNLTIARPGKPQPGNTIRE

T9: DFNB31_3, Q9P202
T9 sequence (Q9P202 811-907, limits assumed, looked up): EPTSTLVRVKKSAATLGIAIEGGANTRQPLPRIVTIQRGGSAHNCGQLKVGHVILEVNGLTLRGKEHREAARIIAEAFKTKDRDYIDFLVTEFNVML

T10: PCLO, Q9Y6V0
T10 sequence (Q9Y6V0 4491-4600, limits assumed, looked up): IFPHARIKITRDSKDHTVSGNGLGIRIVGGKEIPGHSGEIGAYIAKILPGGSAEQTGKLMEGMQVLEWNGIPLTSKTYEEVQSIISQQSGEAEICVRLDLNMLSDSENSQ


Legend:
Assay in all cases: holdup assay
Design in all cases: key: below the threshold = too weak to quantify, mostly under pKd 3.1 to 4
Conditions in all cases: plain residues with an end cap or a label only (N-terminal biotin on a linker: ado-ado)
GORASP1, Q9BQQ3 = molecular target: GORASP1, Q9BQQ3
Chain of GORASP1, Q9BQQ3 (Q9BQQ3 1-208): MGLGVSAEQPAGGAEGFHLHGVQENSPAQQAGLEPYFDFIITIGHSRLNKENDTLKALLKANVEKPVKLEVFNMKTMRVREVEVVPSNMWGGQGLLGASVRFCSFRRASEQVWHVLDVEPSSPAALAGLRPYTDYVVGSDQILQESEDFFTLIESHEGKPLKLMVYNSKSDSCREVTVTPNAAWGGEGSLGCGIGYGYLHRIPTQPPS

NOS1, P29475 = molecular target: NOS1, P29475
Chain of NOS1, P29475 (P29475 9-101): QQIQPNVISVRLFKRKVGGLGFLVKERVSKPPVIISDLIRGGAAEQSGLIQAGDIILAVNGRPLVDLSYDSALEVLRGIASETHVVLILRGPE

PICK1, Q9NRD5 = molecular target: PICK1, Q9NRD5
Chain of PICK1, Q9NRD5 (Q9NRD5 17-115): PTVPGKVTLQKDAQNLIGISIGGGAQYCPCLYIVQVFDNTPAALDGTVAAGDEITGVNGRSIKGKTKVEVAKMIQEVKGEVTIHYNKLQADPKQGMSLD

NHERF4_1, Q86UT5-2 = molecular target: NHERF4_1, Q86UT5-2
Chain of NHERF4_1, Q86UT5-2 (Q86UT5 other isoform, or with tags, fused parts or gaps): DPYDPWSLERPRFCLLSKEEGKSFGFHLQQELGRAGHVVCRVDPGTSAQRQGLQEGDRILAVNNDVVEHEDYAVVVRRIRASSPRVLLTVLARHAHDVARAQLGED

TIAM2, Q8IVF5 = molecular target: T1, TIAM2, Q8IVF5
SHANK1, Q9Y566 = molecular target: T2, SHANK1, Q9Y566
MPP2, Q14168 = molecular target: T3, MPP2, Q14168
NHERF3_3, Q5T2W1 = molecular target: T4, NHERF3_3, Q5T2W1
GRIP1_5, Q9Y3R0 = molecular target: T5, GRIP1_5, Q9Y3R0
DLG2_2, Q15700 = molecular target: DLG2_2, Q15700
Chain of DLG2_2, Q15700 (Q15700 189-283): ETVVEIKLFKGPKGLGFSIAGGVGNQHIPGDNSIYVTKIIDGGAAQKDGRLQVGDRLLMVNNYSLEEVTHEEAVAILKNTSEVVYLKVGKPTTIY

DLG4_2, P78352 = molecular target: DLG4_2, P78352
Chain of DLG4_2, P78352 (P78352 155-259): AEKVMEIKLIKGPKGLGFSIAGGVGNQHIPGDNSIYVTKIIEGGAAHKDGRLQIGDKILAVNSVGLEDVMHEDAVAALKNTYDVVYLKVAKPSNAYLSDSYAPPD

PTPN3, P26045 = molecular target: PTPN3, P26045
Chain of PTPN3, P26045 (P26045 505-587): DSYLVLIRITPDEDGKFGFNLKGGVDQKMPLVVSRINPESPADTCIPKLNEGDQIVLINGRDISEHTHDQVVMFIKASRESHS

GRID2IP_1, A4D2P6 = molecular target: GRID2IP_1, A4D2P6
Chain of GRID2IP_1, A4D2P6 (A4D2P6 1-87): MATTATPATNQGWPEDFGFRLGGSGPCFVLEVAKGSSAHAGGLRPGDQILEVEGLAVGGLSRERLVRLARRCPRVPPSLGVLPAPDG

Inadl_8, Q8NI35 = molecular target: Inadl_8, Q8NI35
Chain of Inadl_8, Q8NI35 (Q8NI35 1425-1530): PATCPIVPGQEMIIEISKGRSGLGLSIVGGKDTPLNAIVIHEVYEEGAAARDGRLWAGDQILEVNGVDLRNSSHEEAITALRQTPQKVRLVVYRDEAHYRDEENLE

NHERF3_1, Q5T2W1 = molecular target: T6, NHERF3_1, Q5T2W1
TJP1_3, Q07157 = molecular target: TJP1_3, Q07157
Chain of TJP1_3, Q07157 (Q07157 416-512): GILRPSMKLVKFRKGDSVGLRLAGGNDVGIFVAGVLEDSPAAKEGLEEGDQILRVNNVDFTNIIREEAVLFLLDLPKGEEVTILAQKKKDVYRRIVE

DLG5_1, Q8TDM6 = molecular target: DLG5_1, Q8TDM6
Chain of DLG5_1, Q8TDM6 (Q8TDM6 617-713): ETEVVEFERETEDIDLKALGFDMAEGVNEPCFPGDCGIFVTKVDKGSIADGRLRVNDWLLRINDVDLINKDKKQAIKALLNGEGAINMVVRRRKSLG

TJP3_3, O95049 = molecular target: T7, TJP3_3, O95049
FRMPD2_3, Q68DX3 = molecular target: FRMPD2_3, Q68DX3
Chain of FRMPD2_3, Q68DX3 (Q68DX3 1073-1166): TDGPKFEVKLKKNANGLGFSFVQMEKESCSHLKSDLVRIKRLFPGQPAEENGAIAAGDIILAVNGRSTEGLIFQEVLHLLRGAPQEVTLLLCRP

LNX2_2, Q8N448 = molecular target: T8, LNX2_2, Q8N448
MAGI2_6, Q86UL8 = molecular target: MAGI2_6, Q86UL8
Chain of MAGI2_6, Q86UL8 (Q86UL8 1141-1229): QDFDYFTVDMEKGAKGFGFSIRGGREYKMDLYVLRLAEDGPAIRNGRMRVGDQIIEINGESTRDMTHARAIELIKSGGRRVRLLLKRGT

MAGI2_2, Q86UL8 = molecular target: MAGI2_2, Q86UL8
Chain of MAGI2_2, Q86UL8 (Q86UL8 410-522): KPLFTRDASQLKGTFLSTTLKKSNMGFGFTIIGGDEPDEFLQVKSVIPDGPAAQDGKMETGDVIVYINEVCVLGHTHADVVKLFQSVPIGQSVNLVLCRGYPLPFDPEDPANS

IL16_1, Q14005 = molecular target: IL16_1, Q14005
Chain of IL16_1, Q14005 (Q14005 210-306): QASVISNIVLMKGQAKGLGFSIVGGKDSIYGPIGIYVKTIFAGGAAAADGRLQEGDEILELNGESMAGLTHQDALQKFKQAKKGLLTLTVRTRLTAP

DFNB31_3, Q9P202 = molecular target: T9, DFNB31_3, Q9P202
Inadl_6, Q8NI35 = molecular target: Inadl_6, Q8NI35
Chain of Inadl_6, Q8NI35 (Q8NI35 1058-1167): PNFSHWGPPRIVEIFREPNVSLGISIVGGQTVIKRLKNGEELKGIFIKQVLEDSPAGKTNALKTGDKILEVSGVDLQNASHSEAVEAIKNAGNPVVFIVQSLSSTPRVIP

DLG4_1, P78352 = molecular target: DLG4_1, P78352
Chain of DLG4_1, P78352 (P78352 62-152): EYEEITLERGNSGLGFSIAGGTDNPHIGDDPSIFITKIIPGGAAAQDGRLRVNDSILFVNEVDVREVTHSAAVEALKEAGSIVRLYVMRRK

PCLO, Q9Y6V0 = molecular target: T10, PCLO, Q9Y6V0

Row | Binder | pKd (GORASP1, Q9BQQ3) | pKd (NOS1, P29475) | pKd (PICK1, Q9NRD5) | pKd (NHERF4_1, Q86UT5-2) | pKd (TIAM2, Q8IVF5) | pKd (SHANK1, Q9Y566) | pKd (MPP2, Q14168) | pKd (NHERF3_3, Q5T2W1) | pKd (GRIP1_5, Q9Y3R0) | pKd (DLG2_2, Q15700) | pKd (DLG4_2, P78352) | pKd (PTPN3, P26045) | pKd (GRID2IP_1, A4D2P6) | pKd (Inadl_8, Q8NI35) | pKd (TJP1_3, Q07157) | pKd (DLG5_1, Q8TDM6) | pKd (TJP3_3, O95049) | pKd (FRMPD2_3, Q68DX3) | pKd (LNX2_2, Q8N448) | pKd (MAGI2_6, Q86UL8) | further results
1 | SKQFDKNAYV [CLDN10, P78369] | below the threshold | 3.61 | below the threshold | below the threshold | below the threshold | below the threshold | below the threshold | below the threshold | below the threshold | below the threshold | 3.52 | below the threshold | below the threshold | 3.5 | below the threshold | below the threshold | 3.68 | below the threshold | 4.1 | below the threshold | pKd (NHERF3_1, Q5T2W1): 4.85; pKd (MAGI2_2, Q86UL8): below the threshold; pKd (IL16_1, Q14005): below the threshold; pKd (DFNB31_3, Q9P202): below the threshold; pKd (Inadl_6, Q8NI35): below the threshold; pKd (DLG4_1, P78352): below the threshold; pKd (PCLO, Q9Y6V0): below the threshold
2 | VKQYADVEGF [HNRNPK, P61978;P61978-2] | below the threshold | below the threshold | below the threshold | 3.99 | 3.94 | below the threshold | below the threshold | below the threshold | below the threshold | below the threshold | below the threshold | 3.93 | below the threshold | below the threshold | below the threshold | below the threshold | below the threshold | below the threshold | below the threshold | below the threshold | pKd (IL16_1, Q14005): below the threshold; pKd (DFNB31_3, Q9P202): 3.98; pKd (Inadl_6, Q8NI35): below the threshold; pKd (DLG4_1, P78352): below the threshold; pKd (PCLO, Q9Y6V0): below the threshold
3 | PSDSVGKDVF [EGLN1, Q9GZT9] | below the threshold | below the threshold | below the threshold | below the threshold | 4.05 | below the threshold | below the threshold | below the threshold | below the threshold | below the threshold | below the threshold | below the threshold | below the threshold | below the threshold | below the threshold | below the threshold | below the threshold | below the threshold | below the threshold | below the threshold | pKd (NHERF3_1, Q5T2W1): below the threshold; pKd (MAGI2_2, Q86UL8): below the threshold; pKd (IL16_1, Q14005): below the threshold; pKd (DFNB31_3, Q9P202): below the threshold; pKd (Inadl_6, Q8NI35): below the threshold; pKd (DLG4_1, P78352): below the threshold; pKd (PCLO, Q9Y6V0): below the threshold

More lines, main results first:

Row | pKd (GORASP1, Q9BQQ3) | pKd (NOS1, P29475) | pKd (PICK1, Q9NRD5) | pKd (NHERF4_1, Q86UT5-2) | pKd (TIAM2, Q8IVF5) | pKd (SHANK1, Q9Y566) | pKd (MPP2, Q14168) | pKd (NHERF3_3, Q5T2W1) | pKd (GRIP1_5, Q9Y3R0) | pKd (DLG2_2, Q15700) | pKd (DLG4_2, P78352) | pKd (PTPN3, P26045) | pKd (GRID2IP_1, A4D2P6) | pKd (Inadl_8, Q8NI35) | pKd (TJP1_3, Q07157) | pKd (DLG5_1, Q8TDM6) | pKd (TJP3_3, O95049) | pKd (FRMPD2_3, Q68DX3) | pKd (LNX2_2, Q8N448) | pKd (MAGI2_6, Q86UL8) | Binder | further results
4 | below the threshold | 3.72 | 4.19 | 3.67 | 3.98 | 4.63 | below the threshold | 4.16 | below the threshold | below the threshold | 3.66 | 4.84 | below the threshold | below the threshold | below the threshold | below the threshold | below the threshold | 3.52 | below the threshold | 4 | VYEVPVETKF [SLC26A3, P40879] | pKd (NHERF3_1, Q5T2W1): 5.51; pKd (MAGI2_2, Q86UL8): below the threshold; pKd (IL16_1, Q14005): below the threshold; pKd (DFNB31_3, Q9P202): 3.94; pKd (Inadl_6, Q8NI35): below the threshold; pKd (DLG4_1, P78352): below the threshold; pKd (PCLO, Q9Y6V0): below the threshold
5 | below the threshold | below the threshold | 4.11 | 3.75 | below the threshold | 4.78 | below the threshold | below the threshold | below the threshold | below the threshold | below the threshold | below the threshold | below the threshold | below the threshold | below the threshold | below the threshold | below the threshold | below the threshold | below the threshold | below the threshold | PAALPESTHM [SLC9A3, P48764] | pKd (NHERF3_1, Q5T2W1): 5.37; pKd (MAGI2_2, Q86UL8): below the threshold; pKd (IL16_1, Q14005): below the threshold; pKd (DFNB31_3, Q9P202): below the threshold; pKd (Inadl_6, Q8NI35): below the threshold; pKd (DLG4_1, P78352): below the threshold; pKd (PCLO, Q9Y6V0): below the threshold
